Legend:
human TrkB = molecular target: T1, human TrkB (Homo sapiens, UniProt Q16620); test: Receptor tyrosine phosphorylation (KIRA) in TrkB expressing cell line; type: cell-based
T1 construct: expressed in transfected cells
From the text: Method of making pegylated NT-4/5 (S50C): The native form of NT-4/5 used in this study was produced according to the method described in U.S. Pat. No. 6,184,360. A site-directed pegylated NT-4/5 was also produced. The structure of NT-4/5 in complex with domain 5 of TrkB was examined to find amino acid side chains that would be surface available and unlikely to interfere with natural disulfide bonds and also unlikely to interfere in either the interactions between the monomer subunits of NT-4/5 or the TrkB domain 5 to create a PEG attaching site. […] […] Mutant proteins were expressed in E. coli, solubilized, extracted, purified and refolded as the native NT-4/5. To pegylate the refolded NT4-S50C, NT4-Q105C, and NT-4-E67C, first a mild reduction with 0.1 mM DTT (dithiothreitol) was performed. Excess DTT was removed by dialysis against 50 mM sodium acetate at pH 6, then a 5 molar excess of mPEG-maleimide (M. W. of 10,000 Da, SunBio, Inc., South Korea) was incubated with the protein at 37° C. for several days with gentle agitation. Pegylated protein, non-pegylated protein and unreacted PEG were separated via ion exchange or size exclusion chromatography.
(§1) Assays of TrkB specific activation by pegylated NT-4/5: Stable cell lines expressing human TrkA, TrkB or TrkC were used to determine the functional activity, i.e. receptor phosphorylation, of NT-4/5 and pegylated NT-4/5 as previously described (Sadick et al. Experimental Cell Research 234: 354-361, 1997).
as §1, with “and different forms of” for “and”

[1] = tested on: NONcNZO-10 polygenic obese mice; test: Pegylated NT-4/5 cysteine mutant on body weight, food intake, glucose, triglyceride in NONcNZO-10 mice (Example 6); type: in vivo; conditions: 2 mg/kg/week injection
human TrkA = molecular target: T2, human TrkA (Homo sapiens, UniProt P04629); test: Receptor tyrosine phosphorylation in trkA expressing cell line; type: cell-based
T2 construct: expressed in transfected cells
T2 sequence (P04629 33-796): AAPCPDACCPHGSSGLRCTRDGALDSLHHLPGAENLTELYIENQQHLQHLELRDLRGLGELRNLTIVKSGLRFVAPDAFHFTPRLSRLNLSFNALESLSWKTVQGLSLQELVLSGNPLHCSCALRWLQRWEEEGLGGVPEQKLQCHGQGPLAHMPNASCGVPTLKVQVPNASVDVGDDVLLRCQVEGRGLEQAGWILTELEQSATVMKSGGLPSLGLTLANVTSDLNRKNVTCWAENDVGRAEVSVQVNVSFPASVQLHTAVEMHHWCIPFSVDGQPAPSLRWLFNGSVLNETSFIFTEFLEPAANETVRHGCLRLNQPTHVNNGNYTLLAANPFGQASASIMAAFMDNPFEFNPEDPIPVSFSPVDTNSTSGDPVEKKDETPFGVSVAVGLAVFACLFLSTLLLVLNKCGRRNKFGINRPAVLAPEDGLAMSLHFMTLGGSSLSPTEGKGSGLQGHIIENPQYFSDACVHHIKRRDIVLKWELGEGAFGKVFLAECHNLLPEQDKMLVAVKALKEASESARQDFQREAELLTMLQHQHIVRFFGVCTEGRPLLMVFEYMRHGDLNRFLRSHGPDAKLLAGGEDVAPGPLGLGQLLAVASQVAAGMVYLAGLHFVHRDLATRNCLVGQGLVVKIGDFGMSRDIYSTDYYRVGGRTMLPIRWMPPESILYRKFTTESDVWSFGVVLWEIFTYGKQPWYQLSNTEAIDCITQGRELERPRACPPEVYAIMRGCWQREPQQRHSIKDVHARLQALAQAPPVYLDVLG
From the text: as §1
as §1, with “and different forms of” for “and”

human TrkC = molecular target: T3, human TrkC (Homo sapiens, UniProt Q16288); test: Receptor tyrosine phosphorylation in trkC expressing cell line; type: cell-based
T3 construct: expressed in transfected cells
T3 sequence (Q16288 32-839): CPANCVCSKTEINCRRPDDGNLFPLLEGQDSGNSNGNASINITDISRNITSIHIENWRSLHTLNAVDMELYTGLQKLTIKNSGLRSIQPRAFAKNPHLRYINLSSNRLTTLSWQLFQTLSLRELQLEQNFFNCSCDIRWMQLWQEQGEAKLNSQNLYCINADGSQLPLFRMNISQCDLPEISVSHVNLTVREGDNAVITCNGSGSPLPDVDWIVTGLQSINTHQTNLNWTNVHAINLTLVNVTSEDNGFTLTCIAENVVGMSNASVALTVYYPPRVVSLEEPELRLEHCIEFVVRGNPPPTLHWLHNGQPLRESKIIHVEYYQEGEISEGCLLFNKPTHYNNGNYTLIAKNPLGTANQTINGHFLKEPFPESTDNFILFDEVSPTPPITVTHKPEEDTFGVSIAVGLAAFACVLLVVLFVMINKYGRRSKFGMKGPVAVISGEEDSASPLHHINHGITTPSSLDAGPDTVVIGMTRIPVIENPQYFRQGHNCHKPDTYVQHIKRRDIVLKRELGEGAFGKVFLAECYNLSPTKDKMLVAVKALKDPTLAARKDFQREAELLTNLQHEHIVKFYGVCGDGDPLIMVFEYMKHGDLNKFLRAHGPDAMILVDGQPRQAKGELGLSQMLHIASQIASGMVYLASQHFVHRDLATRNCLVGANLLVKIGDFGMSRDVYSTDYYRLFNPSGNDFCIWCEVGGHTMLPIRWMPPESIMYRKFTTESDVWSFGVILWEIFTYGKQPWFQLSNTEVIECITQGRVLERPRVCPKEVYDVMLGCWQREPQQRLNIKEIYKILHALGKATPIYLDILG
From the text: as §1
as §1, with “and different forms of” for “and”

[2] = Serum half life after single subcutaneous dose in db/db mice (Example 7); type: in vivo
From the text: In addition, pegylated NT-4/5 has extended half life in vivo.

db/db mice [3] = test: Body weight after single injection of NT-4/5 or pegylated NT-4/5 in db/db mice (Example 7, Table 21); type: in vivo; conditions: for Body weight expressed in percentage of baseline value: single 5 mg/kg dose on day 1
Method: (§2) Test animals: 30 female db/db mice at 7 weeks of age weighing in the range of 27-34 g were used in this study.
(§3) Administration of NT-4/5 and pegylated NT-4/5: Wild type NT-4/5 was obtained from Genentech Inc. The mice were divided into 5 groups of equivalent body weight distribution (6 mice per group). Each group received on the first day (day 1) of the study one and the only dose of either vehicle, 5 mg/kg of NT-4/5 produced as described above, 5 mg/kg of 2PEG-NT4-G1S, or 5 mg/kg of 1PEG-NT4-G1S. 2PEG-NT4-G1S represents one PEG molecule was conjugated to each NT-4/5 monomer in a NT-4/5 dimer, and 1PEG-NT4-G1S represents one PEG molecule was conjugated to only one monomer of the NT-4/5 dimer. 2PEG-NT4-G1S and 1PEG-NT4-G1S were separated by ion exchange. Four days before starting the treatment (day −4), blood samples were collected from the mice as described previously for the determination of baseline levels of serum glucose. On day 4 after the treatment started, blood samples were collected again to determine serum glucose level. Body weight and food intake were monitored 5 days a week through out the entire study.

db/db mice [4] = test: Daily food intake after single injection of NT-4/5 or pegylated NT-4/5 in db/db mice (Example 7, Table 22); type: in vivo; conditions: for Daily food intake: single s.c. injection 5 mg/kg, db/db mice, mean
Method: as §2, §3

db/db mice [5] = test: Non-fasting serum glucose after single injection in db/db mice (Example 7); type: in vivo; conditions: after 4 days; single subcutaneous injection, 5 mg/kg
Method: as §2, §3

[6] = single subcutaneous injection, 5 mg/kg, significantly

T1 sequence (Q16620 32-822): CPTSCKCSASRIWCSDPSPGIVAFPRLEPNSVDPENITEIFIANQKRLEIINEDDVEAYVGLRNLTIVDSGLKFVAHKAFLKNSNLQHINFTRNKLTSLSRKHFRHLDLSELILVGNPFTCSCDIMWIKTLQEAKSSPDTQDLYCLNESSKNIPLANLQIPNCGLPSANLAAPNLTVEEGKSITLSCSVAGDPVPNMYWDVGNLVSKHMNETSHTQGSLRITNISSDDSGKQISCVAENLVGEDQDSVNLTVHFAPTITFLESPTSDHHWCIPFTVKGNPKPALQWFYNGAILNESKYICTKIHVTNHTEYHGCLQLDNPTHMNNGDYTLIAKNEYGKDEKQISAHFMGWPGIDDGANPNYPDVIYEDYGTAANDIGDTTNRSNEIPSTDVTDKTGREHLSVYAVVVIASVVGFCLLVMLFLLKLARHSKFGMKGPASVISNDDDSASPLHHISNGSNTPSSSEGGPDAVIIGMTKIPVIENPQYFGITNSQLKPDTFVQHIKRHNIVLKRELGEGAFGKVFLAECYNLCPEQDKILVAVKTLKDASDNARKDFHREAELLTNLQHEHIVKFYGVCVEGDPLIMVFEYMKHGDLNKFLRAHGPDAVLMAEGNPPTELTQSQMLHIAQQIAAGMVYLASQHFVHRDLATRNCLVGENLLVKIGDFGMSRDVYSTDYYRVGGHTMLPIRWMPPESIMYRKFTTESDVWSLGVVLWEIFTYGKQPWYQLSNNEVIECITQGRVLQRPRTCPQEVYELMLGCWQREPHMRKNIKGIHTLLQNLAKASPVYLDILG

| Molecule | receptor tyrosine phosphorylation of TrkB-expressing cell line (human TrkB) | in vivo activity (body weight, food intake, glucose or triglyceride) [1] | receptor tyrosine phosphorylation of trkA-expressing cell line (human TrkA) | receptor tyrosine phosphorylation of trkC-expressing cell line (human TrkC) | absolute protein levels relative to native NT-4/5 ([2]; at any given time point) | serum half life ([2]; single subcutaneous dose of 4 mg/kg in db/db mice, estimated) [min] | Body weight expressed in percentage of baseline value (db/db mice [3]; Day 1) | Body weight expressed in percentage of baseline value (db/db mice [3]; Day 2) | Body weight expressed in percentage of baseline value (db/db mice [3]; Day 3) | Body weight expressed in percentage of baseline value (db/db mice [3]; Day 4) | body weight growth (db/db mice [3]; [6]) | Daily food intake (db/db mice [4]; Day 1) [g/day] | Daily food intake (db/db mice [4]; Day 2) [g/day] | Daily food intake (db/db mice [4]; Day 3) [g/day] | Daily food intake (db/db mice [4]; Day 4) [g/day] | food intake (db/db mice [4]; [6]) | non-fasting serum glucose levels (db/db mice [5]) |
| --- | --- | --- | --- | --- | --- | --- | --- | --- | --- | --- | --- | --- | --- | --- | --- | --- | --- |
| Pegylated mutant NT-4/5 (Q105C): NT-4/5 with residue 105 changed to cysteine, pegylated with mPEG-maleimide (10,000 Da) (conjugate) GVSETAPASRRGELAVCDAVSGWVTDRRTAVDLRGREVEVLGEVPAAGGSPLRQYFFETRCKADNAEEGGPGAGGGGCRGVDRRHWVSECKAKQSYVRALTADACGRVGWRWIRIDTACVCTLLSRTGRA | preserved TrkB receptor agonist activity | inactive in vivo | – | – | – | – | – | – | – | – | – | – | – | – | – | – | – |
| 2PEG-NT4-G1S: NT4-G1S dimer with one 20 kDa PEG molecule conjugated to each NT-4/5 monomer (conjugate) SVSETAPASRRGELAVCDAVSGWVTDRRTAVDLRGREVEVLGEVPAAGGSPLRQYFFETRCKADNAEEGGPGAGGGGCRGVDRRHWVSECKAKQSYVRALTADAQGRVGWRWIRIDTACVCTLLSRTGRA | increased receptor tyrosine phosphorylation | – | did not increase receptor tyrosine phosphorylation | did not increase receptor tyrosine phosphorylation | several orders of magnitude higher | 764 to 960 | 100.0 % of baseline | 97.3 % of baseline | 98.4 % of baseline | 100.1 % of baseline | reduced the body weight growth | 6.7 | 5.3 | 5.8 | 6.2 | reduced | showed a tendency to reduce |
